Results as given in patent US20150056222A1 (Regeneron, published 2015).

B1: H1H6807P (antibody, V domains shown)
VH: QVQLVESGGGVVQPGRSLRLSCAASGFTFSDYNMHWVRQAPGKGLEWVAVIWYDGSNKHYADSVKGRFTISRDNSKNTLYLQMNSLRAEDTAVYYCARDGFTIFGMVLDYWGQGTLVTVSS
VL: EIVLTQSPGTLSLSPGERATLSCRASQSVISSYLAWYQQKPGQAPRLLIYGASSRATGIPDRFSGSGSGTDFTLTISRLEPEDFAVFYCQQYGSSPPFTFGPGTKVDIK
notes: human IgG1 Fc (H1H)
B2: H1H6804P (antibody, human IgG1, V domains shown)
VH: QVTLKESGPVLVKPTQTLSLTCTVSGFSLSDAGMGVSWIRQPPGKALEWLAHIFSNDGKSYSTSLKSRLTISKDTSKRQVVLTMTNMDPVDTATYYCARIRTGTYSLYLDYWGQGTLVTVSS
VL: DIQMTQSPSSLSASVGDRVTITCRASQSINSYLNWYQQKPGKAPKLLLYFASSLQSGVPSRFSGSGSGTDFTLTISSLQPEDFASYYCQESYSTPWTFGQGTKVEIK
notes: human IgG1 Fc (H1H)
B3: H1H6790P (antibody, human IgG1, V domains shown)
VH: EVQLVESGGGLVQPGGSLRLSCAASGFTFSSYAMTWVRQAPGKGLEWVSAITGSVGNTYYADSVKGRFTISRDNSKNTLYLQMNSLGAEDTAEYYCAKGAGMTTNWYLDLWGRGTLVTVSS
VL: DIVMTQSPDSLAVSLGARATINCKSSQSVLYSSNNQNYLTWYQQKPGQPPKLLIKWASTRESGVPDRFSGSGSGTDFTLTISSLQAEDVAVYYCQQYASSPYTFGQGTKLEIK
notes: human IgG1 Fc (H1H)
B4: H1H6797P (antibody, human IgG1, V domains shown)
VH: EVQLVESGGGLVQPGGSLRLSCIVSGFTFSGSWMSWVRQLPGKGLEWVANIKEDGSDSYYVDSVEGRFTISRDNAKSSLYLQMNSLRVDDTAVYFCARARTVPLHYWGQGTLVTVSS
VL: DIQMTQSPSTLSASVGDRVTITCRASQSINIWLAWYQQKPGKAPKLLIYRASYLESGVPSSFAGGGSGTEFTLTISSLQPDDFGTYYCQHYNSYPFTFGQGTKLEIK
notes: human IgG1 Fc (H1H)
B5: H1H6953N (antibody, human IgG1, V domains shown)
VH: EVQLLESGGGLVQPGGTLRLSCAASGFTFSAYAMSWVRQAPGKGLEWVSSINVRAGDTYYADSVKGRFTISRDNSKNTLFLLMNSLRAEDTAAYYCAKARYSSNWGFDFWGQGTLVTVSS
VL: DIVMTQSPDSLTVSLGARTTINCQSSQTILHSSNNHNYLAWYQQKPGLPPKLLIYWSSTRESGVPDRFSGSGSGTDFTLTISSLQAEDVAIYYCQQYSNTPYTFGQGTKLEIN
notes: also called H1M6953N
B6: H1H6795P (antibody, human IgG1, V domains shown)
VH: QVQLVQSGAEVKKPGASVKVSCKASGYTFGTSGITWVRQAPGQGLEWMGWSSAYNGKTDYAQKFQDRVTMTTDTSTTTGYMEMRSLTSDDTAVYYCTTVVRRPFDFWGQGTLVTVSS
VL: DIQMTQSPSSLSASVGDRVTITCRASQDINNFLAWFQQKPGKAPKSLIYAASSLQSGVPSKFSGGGSGTDFALTISSLQPEDFATYYCQQYSSYPITFGQGTRLEIK
notes: human IgG1 Fc (H1H)

Key:
[1] = target: T1, human prolactin receptor (PRLR) on cells (human, UniProt P16471 25-622); assay: FACS, HEK293/hPRLR cells; further: test concentration or dose not given here
T1 construct: T47D, T47D#11 and MCF7 carry the endogenous receptor; also called hPRLR; HEK293/hPRLR
T1 sequence: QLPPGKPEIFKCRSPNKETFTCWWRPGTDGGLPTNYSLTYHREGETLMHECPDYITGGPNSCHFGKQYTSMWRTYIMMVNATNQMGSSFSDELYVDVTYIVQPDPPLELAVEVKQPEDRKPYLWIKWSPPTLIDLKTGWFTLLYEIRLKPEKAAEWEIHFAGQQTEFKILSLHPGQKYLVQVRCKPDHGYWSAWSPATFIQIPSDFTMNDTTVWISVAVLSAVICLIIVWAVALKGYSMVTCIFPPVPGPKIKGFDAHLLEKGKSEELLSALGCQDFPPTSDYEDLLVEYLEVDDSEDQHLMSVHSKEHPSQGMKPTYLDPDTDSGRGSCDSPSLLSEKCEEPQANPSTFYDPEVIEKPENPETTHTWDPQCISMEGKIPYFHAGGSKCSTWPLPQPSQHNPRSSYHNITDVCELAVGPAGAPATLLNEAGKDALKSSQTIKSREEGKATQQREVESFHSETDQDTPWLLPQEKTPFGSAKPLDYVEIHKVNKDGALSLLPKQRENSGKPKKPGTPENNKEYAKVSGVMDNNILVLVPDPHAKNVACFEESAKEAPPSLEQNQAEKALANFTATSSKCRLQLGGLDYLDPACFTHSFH

[2] = target: T2, hPRLR.mFc (soluble dimeric human PRLR) (human); assay: SPR, 37C, mAb capture
T2 construct: dimeric construct
T2 chain: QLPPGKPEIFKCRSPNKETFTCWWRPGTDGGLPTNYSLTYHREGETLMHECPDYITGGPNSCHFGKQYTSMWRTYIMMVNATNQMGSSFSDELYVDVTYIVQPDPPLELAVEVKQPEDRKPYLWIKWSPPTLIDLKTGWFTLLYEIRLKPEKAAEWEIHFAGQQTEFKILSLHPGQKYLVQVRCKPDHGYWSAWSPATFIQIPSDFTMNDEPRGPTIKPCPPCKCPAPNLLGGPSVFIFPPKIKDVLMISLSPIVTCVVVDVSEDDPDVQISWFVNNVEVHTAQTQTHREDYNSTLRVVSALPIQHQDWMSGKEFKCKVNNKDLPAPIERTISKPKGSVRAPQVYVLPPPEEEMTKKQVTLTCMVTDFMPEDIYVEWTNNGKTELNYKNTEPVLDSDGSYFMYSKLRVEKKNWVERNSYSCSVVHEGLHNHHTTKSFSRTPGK
Protocol: (§1) Measurements were conducted on a T200 Biacore instrument. Kinetic association (kₐ) and dissociation (kd) rate constants were determined by processing and fitting the data to a 1:1 binding model using Scrubber 2.0 curve fitting software. Binding dissociation equilibrium constants (KD) and dissociative half-lives (t_{1/2}) were calculated from the kinetic rate constants as: KD (M)=kd/kₐ; and […].

[3] = target: T3, mfPRLR.mmh (soluble monomeric macaca fascicularis PRLR) (macaca fascicularis); assay: SPR, 37C, mAb capture
T3 construct: soluble monomeric construct; also called macaca fascicularis (mf) PRLR.mmh
T3 chain: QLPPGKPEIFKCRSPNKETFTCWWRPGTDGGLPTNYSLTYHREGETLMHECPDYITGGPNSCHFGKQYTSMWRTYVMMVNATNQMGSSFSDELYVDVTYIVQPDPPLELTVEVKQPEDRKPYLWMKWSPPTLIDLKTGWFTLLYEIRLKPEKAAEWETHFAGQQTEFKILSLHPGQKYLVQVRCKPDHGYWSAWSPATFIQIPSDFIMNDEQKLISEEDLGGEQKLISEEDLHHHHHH
Protocol: as §1

[4] = target: T4, hPRLR.mmh (soluble monomeric human PRLR) (human); assay: SPR, 37C, mAb capture
T4 construct: soluble monomeric construct
T4 chain: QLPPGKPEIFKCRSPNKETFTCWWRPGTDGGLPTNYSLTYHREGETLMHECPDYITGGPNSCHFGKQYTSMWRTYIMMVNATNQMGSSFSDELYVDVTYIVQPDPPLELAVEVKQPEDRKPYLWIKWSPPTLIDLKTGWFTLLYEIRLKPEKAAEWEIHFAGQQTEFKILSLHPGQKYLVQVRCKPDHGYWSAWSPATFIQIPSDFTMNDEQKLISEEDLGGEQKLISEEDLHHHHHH
Protocol: as §1

[5] = target: T1, human prolactin receptor (PRLR) on cells; assay: cell-based or functional assay
[6] = target: T1, human prolactin receptor (PRLR) on cells; assay: FACS, T47D cells (native PRLR); further: test concentration or dose not given here
[7] = target: T5, monkey (macaca fascicularis) PRLR on HEK293 cells (macaca fascicularis, UniProt A0A2K5WXK1 25-619); assay: FACS, HEK293/mfPRLR cells; further: test concentration or dose not given here
T5 construct: also called mfPRLR; HEK293/mfPRLR
T5 sequence: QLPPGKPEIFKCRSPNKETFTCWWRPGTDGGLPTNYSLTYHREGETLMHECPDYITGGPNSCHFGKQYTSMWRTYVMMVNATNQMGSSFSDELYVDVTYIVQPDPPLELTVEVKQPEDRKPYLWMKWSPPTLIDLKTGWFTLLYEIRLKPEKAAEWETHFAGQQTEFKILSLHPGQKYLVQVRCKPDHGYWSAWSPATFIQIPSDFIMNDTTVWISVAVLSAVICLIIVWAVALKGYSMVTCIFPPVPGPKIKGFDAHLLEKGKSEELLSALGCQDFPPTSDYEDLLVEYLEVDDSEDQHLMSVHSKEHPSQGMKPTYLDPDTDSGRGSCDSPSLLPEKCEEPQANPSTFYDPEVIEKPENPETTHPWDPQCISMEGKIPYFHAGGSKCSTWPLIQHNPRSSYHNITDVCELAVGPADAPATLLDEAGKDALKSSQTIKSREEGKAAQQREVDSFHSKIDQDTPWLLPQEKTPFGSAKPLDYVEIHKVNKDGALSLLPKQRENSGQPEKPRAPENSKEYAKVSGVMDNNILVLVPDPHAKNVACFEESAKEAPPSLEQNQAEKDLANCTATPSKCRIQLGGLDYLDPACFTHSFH

[8] = target: T6, mouse PRLR on HEK293 cells (mouse, UniProt Q08501 20-608); assay: FACS, HEK293/mPRLR cells; further: test concentration or dose not given here
T6 construct: whole, on cells; also called mPRLR; HEK293/mPRLR
T6 sequence (looked up): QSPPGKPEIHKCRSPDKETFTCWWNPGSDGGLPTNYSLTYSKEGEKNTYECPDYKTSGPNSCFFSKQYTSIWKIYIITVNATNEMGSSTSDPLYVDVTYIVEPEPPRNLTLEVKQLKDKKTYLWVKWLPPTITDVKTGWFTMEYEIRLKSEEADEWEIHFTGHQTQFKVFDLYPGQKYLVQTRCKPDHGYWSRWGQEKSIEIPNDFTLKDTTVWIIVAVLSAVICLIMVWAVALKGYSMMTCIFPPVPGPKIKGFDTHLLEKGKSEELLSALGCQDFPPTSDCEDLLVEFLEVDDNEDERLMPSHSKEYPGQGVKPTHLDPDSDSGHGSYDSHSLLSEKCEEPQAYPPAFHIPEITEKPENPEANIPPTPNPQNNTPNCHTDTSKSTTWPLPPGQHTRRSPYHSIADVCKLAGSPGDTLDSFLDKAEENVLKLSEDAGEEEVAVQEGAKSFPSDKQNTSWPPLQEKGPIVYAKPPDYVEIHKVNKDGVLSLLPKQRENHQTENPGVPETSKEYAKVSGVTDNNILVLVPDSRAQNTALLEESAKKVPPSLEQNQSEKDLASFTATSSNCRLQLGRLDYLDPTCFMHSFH

Row | Binder | FACS Cell Binding (Fold Above Background) [1] [fold above background] | T½ [2] [min] | T½ [3] [min] | T½ [4] [min] | % Internalization relative to Control I (alexa488 intensity in intracellular vesicles at 37 C, T47D cells) [5] [%] | FACS Cell Binding (Fold Above Background) [6] [fold above background] | FACS Cell Binding (Fold Above Background) [7] [fold above background] | FACS Cell Binding (Fold Above Background) [8] [fold above background]
1 | B1 | 32 | 105 | 32 | 34 | 147 | 34 | 27 | 2
2 | B2 | 1 | 56 | 3 | 3 | 139 | 34 | 29 | 1
3 | B3 | 37 | 58 | 4 | 4 | 147 | 34 | 24 | 1
4 | B4 | 1 | 93 | 1 | 1 | 145 | 38 | 25 | 2
5 | B5 | 37 | 68 | 4.5 | 9.4 | 154 | 40 | 29 | 2
6 | B6 | 1 | 149 | 2 | 2 | 151 | 34 | 22 | 1
